Measurements: US20220098266A1 (AKSTON BIOSCIENCES, published 2022)

Target: T1, human insulin receptor on human IM-9 cells (human, UniProt P06213 28-1382)
T1 construct: whole, on cells; The natural receptor is an alpha2-beta2 tetramer processed from one precursor; also called IR; human IR
Assay: flow cytometry competition with biotinylated RHI on IM-9 cells at 4 C
Method: Cultures of IM-9 cells were centrifuged at 250×g (˜1000 rpm) for 10 min to pellet the cells. Cells were washed once with HBSS or PBS buffer, resuspended in cold FACS staining medium (HBSS/2 mM EDTA/0.1% Na-azide+4% horse serum) to a concentration of 8×10^6 cells/mL and kept on ice or 4° C. until test solutions were made. The insulin-Fc protein was diluted in FACS buffer in 1:3 serial dilutions as 2× concentrations in 1.2 mL tubes (approx. 60 μL volume of each dilution), and the solutions were kept cold on ice until ready for pipetting.
Biotinylated-RHI was diluted in FACS staining medium to a concentration of 1.25 μg/mL. 40 μL of the serially diluted test compound and 8 μL of 1.25 μg/mL Biotin-RHI were added into each well of a V bottom microtiter plate, mixed by slow vortexing, and placed on ice. 40 μL of an IM-9 cell suspension (8×10^6 cells/mL) was then added to each well by multichannel pipette, mixed again gently and incubated on ice for 30 min to allow competitive binding on the insulin receptor on IM-9 cells. Cells were then washed twice with […], of ice-cold FACS wash buffer (HBSS/2 mM EDTA/0.1% Na-azide+0.5% horse serum) by centrifuging the V-bottom plate at 3000 rpm for 3 min and aspirating the supernatant. Cells were then resuspended in […], of FACS staining medium containing 1:100 diluted Streptavidin-PE (Life Technologies) for 20 min on ice. Cells were then washed once with 275 μL of ice-cold FACS buffer and finally fixed with 3% paraformaldehyde for 10 min at room temp. Cells were then washed once with 275 μL of ice-cold FACS buffer and resuspended in 250 μl of FACS buffer for analysis.
The V-bottom plates containing cells were then analyzed on a Guava 8-HT flow cytometer (Millipore). Biotinylated-RHI binding to insulin receptor was quantitated by the median fluorescence intensity (MFI) of the cells on the FACS FL-2 channel for each concentration of the test compound. Control wells were labeled only with biotinylated-RHI and were used to calculate the percent (%) inhibition resulting from each test compound concentration. The % inhibition by test compounds of biotinylated-RHI binding on IM-9 cells was plotted against log concentrations of the test compound, and the resulting IC50 values were calculated using GraphPad Prism (GraphPad Software, La Jolla, Calif.) for the test compounds.

T1 sequence (P06213 28-1382): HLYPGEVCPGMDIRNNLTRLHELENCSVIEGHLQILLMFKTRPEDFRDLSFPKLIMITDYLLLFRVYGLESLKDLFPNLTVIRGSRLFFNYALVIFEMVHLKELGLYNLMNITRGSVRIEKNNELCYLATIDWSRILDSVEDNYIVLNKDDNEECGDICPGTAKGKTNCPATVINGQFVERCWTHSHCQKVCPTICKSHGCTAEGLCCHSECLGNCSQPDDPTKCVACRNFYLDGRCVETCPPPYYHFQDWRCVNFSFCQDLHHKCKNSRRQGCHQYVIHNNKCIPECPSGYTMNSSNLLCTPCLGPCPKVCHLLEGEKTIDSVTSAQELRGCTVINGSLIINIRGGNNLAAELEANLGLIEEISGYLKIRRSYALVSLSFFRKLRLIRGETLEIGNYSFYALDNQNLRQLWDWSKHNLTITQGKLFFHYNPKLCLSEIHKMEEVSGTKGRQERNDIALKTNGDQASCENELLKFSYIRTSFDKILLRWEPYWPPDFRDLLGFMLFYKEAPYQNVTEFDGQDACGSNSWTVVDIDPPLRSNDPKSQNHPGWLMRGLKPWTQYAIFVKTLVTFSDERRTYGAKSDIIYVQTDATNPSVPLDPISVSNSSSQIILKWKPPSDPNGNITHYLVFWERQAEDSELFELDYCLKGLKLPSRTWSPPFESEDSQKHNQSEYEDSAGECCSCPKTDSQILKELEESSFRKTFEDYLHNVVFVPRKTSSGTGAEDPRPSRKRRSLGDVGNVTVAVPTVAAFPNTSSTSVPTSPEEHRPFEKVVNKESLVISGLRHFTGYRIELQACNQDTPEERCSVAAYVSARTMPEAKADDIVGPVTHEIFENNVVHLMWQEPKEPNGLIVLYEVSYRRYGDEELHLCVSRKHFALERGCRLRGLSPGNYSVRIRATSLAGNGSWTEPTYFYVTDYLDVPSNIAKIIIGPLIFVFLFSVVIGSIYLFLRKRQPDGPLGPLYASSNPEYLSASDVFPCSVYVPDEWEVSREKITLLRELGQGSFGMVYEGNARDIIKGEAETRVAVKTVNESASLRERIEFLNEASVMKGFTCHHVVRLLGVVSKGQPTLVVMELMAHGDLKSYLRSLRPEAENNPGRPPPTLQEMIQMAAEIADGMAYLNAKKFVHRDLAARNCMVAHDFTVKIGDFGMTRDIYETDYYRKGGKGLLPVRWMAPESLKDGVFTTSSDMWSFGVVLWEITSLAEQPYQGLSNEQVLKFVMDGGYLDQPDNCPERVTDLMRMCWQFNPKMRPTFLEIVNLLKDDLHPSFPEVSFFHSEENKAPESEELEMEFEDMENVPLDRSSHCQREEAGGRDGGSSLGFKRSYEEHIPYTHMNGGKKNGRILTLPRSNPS

B1: insulin-Fc fusion protein of SEQ ID NO: 20 (insulin polypeptide SEQ ID NO: 4, linker SEQ ID NO: 8, canine IgGA Fc fragment SEQ ID NO: 10) (Fc fusion)
chain: FVNQHLCGSDLVEALALVCGERGFFYTDPTGGGPRRGIVEQCCHSICSLYQLENYCNGGGGAGGGGRCTDTPPCPVPEPLGGPSVLIFPPKPKDILRITRTPEVTCVVLDLGREDPEVQISWFVDGKEVHTAKTQSREQQFNGTYRVVSVLPIEHQDWLTGKEFKCRVNHIDLPSPIERTISKARGRAHKPSVYVLPPSPKELSSSDTVSITCLIKDFYPPDIDVEWQSNGQQEPERKHRMTPPQLDEDGSYFLYSKLSVDKSRWQQGDPFTCAVMHETLQNHYTDLSLSHSPG
IC50: 2730 nM

B2: insulin-Fc fusion protein of SEQ ID NO: 29 (SEQ ID NO: 24 with des hinge D and the mutation cNg-NB138-K; canine IgGB Fc fragment SEQ ID NO: 15) (Fc fusion)
chain: FVNQHLCGSDLVEALALVCGERGFFYTDPTGGGPRRGIVEQCCHSICSLYQLENYCNGGGGAGGGGCPKCPAPEMLGGPSVFIFPPKPKDTLLIARTPEVTCVVVDLDPEDPEVQISWFVDGKQMQTAKTQPREEQFKGTYRVVSVLPIGHQDWLKGKQFTCKVNNKALPSPIERTISKARGQAHQPSVYVLPPSREELSKNTVSLTCLIKDFFPPDIDVEWQSNGQQEPESKYRTTPPQLDEDGSYFLYSKLSVDKSRWQRGDTFICAVMHEALHNHYTQESLSHSPG
notes: Made in HEK293 cells; Non-glycosylated homodimer, 98.1% homodimer; also called cNg-K
IC50: 147 nM

B3: insulin-Fc fusion protein of SEQ ID NO: 24 (insulin polypeptide SEQ ID NO: 4, linker SEQ ID NO: 8, canine IgGB Fc fragment SEQ ID NO: 11) (Fc fusion)
chain: FVNQHLCGSDLVEALALVCGERGFFYTDPTGGGPRRGIVEQCCHSICSLYQLENYCNGGGGAGGGGDCPKCPAPEMLGGPSVFIFPPKPKDTLLIARTPEVTCVVVDLDPEDPEVQISWFVDGKQMQTAKTQPREEQFNGTYRVVSVLPIGHQDWLKGKQFTCKVNNKALPSPIERTISKARGQAHQPSVYVLPPSREELSKNTVSLTCLIKDFFPPDIDVEWQSNGQQEPESKYRTTPPQLDEDGSYFLYSKLSVDKSRWQRGDTFICAVMHEALHNHYTQESLSHSPG
notes: Made in HEK293 cells; Disulfide-linked homodimer, 93% homodimer; Glycosylated at cNg-NB139
IC50: 28 nM

B4: insulin-Fc fusion protein of SEQ ID NO: 27 (SEQ ID NO: 24 with the mutation cNg-NB139-S; canine IgGB Fc fragment SEQ ID NO: 14) (Fc fusion)
chain: FVNQHLCGSDLVEALALVCGERGFFYTDPTGGGPRRGIVEQCCHSICSLYQLENYCNGGGGAGGGGDCPKCPAPEMLGGPSVFIFPPKPKDTLLIARTPEVTCVVVDLDPEDPEVQISWFVDGKQMQTAKTQPREEQFSGTYRVVSVLPIGHQDWLKGKQFTCKVNNKALPSPIERTISKARGQAHQPSVYVLPPSREELSKNTVSLTCLIKDFFPPDIDVEWQSNGQQEPESKYRTTPPQLDEDGSYFLYSKLSVDKSRWQRGDTFICAVMHEALHNHYTQESLSHSPG
notes: Made in HEK293 cells; Non-glycosylated homodimer, 98.3% homodimer; also called cNg-S
IC50: 145 nM
